{"source": "paper PMC7042713", "experiment_in_all_cases": "SEC-MALS", "key": {"AtSOK1 DIX domain D78A": {"molecular_target": "AtSOK1 DIX domain D78A", "conditions": "2mg/ml D78A; parent value is 2mg/ml wt; calculated monomer mass of AtSOK1 DIX 25 kD (panel A); parent: 87"}, "BhDIX K82A": {"molecular_target": "BhDIX K82A", "conditions": "monomer mass of BhDIX printed in panel as 24kD; parent: 90"}, "BhDIX L8A": {"molecular_target": "BhDIX L8A", "conditions": "parent: est. 9.0e4; read off a plot"}, "BhDIX Y10A": {"molecular_target": "BhDIX Y10A", "conditions": "parent: est. 9.0e4; read off a plot"}, "CpDIX D67A": {"molecular_target": "CpDIX D67A", "conditions": "monomer mass of CpDIX printed in panel as 22kD; parent: 90"}}, "data": [{"substance": "AtSOK1 DIX domain (Arabidopsis thaliana SOSEKI1), wild type D78A", "values": [{"measurement": "other: observed molar mass (SEC-MALS, self-association)", "setting": "AtSOK1 DIX domain D78A", "value": 25, "unit": "kD"}]}, {"substance": "Blastocystis hominis DIX domain K82A", "values": [{"measurement": "other: observed molar mass (SEC-MALS, self-association)", "setting": "BhDIX K82A", "value": 23, "unit": "kD"}]}, {"substance": "Blastocystis hominis DIX domain L8A", "values": [{"measurement": "other: observed molar mass (SEC-MALS, self-association)", "setting": "BhDIX L8A", "value": 55000, "unit": "g/mol"}]}, {"substance": "Blastocystis hominis DIX domain Y10A", "values": [{"measurement": "other: observed molar mass (SEC-MALS, self-association)", "setting": "BhDIX Y10A", "value": 35000, "unit": "g/mol"}]}, {"substance": "Cryptosporidium parvum DIX domain D67A", "values": [{"measurement": "other: observed molar mass (SEC-MALS, self-association)", "setting": "CpDIX D67A", "value": 22, "unit": "kD"}]}]}
